Data from paper PMC1919509 (Nucleic Acids Research, 2007).

Target: Single-stranded DNA binding protein (SSB), over-expressed recombinant (E. coli, UniProt P0AGE0 1-178)
Assay: cross-linking

Single-stranded DNA binding protein (SSB), over-expressed recombinant, sequence (P0AGE0 whole entry): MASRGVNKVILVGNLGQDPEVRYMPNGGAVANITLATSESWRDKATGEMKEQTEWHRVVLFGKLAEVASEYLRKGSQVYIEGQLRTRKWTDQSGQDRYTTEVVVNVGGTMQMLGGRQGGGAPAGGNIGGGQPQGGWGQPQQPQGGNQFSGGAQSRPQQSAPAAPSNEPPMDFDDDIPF

B1: Exonuclease IX (ExoIX), native recombinant (natural protein, E. coli, UniProt P38506 1-251, looked up)
chain: MAVHLLIVDALNLIRRIHAVQGSPCVETCQHALDQLIMHSQPTHAVAVFDDENRSSGWRHQRLPDYKAGRPPMPEELHDEMPALRAAFEQRGVPCWSTSGNEADDLAATLAVKVTQAGHQATIVSTDKGYCQLLSPTLRIRDYFQKRWLDAPFIDKEFGVQPQQLPDYWGLAGISSSKVPGVAGIGPKSATQLLVEFQSLEGIYENLDAVAEKWRKKLETHKEMAFLCRDIARLQTDLHIDGNLQQLRLVR
For B1, the “stoichiometry N” value was 2 ExoIX molecules per SSB tetramer.
